These results are taken from PMC10275042.

The target of the experiment is NBS1 (UniProt O60934). As to the kind of experiment: anti-Flag co-IP. Conditions: reference: wild-type Syk-Flag; sites T504.

As to Syk (from UniProt P43405) Syk T504A, the “binding against the reference” value is listed as “lost”.
